According to patent publication US20180071366A1:
Each block holds one binder with its values, some of them ahead of it. Numbered stars: 1 amine (or outer) side, 2 acyl side, 3 side chain; on linkers, the order of the positions; unused ones are H or OH. Bridge positions count the residues as written; N and C are the ends. Square brackets hold non-standard residues; d marks the D form. * marks the point of attachment. C20 diacid = O=C(O)CCCCCCCCCCCCCCCCCCC(=O)*; γGlu = O=C(O)[C@H](CCC(=O)[*:2])N[*:1]; Hyp = O=C(O)[C@@H]1C[C@@H](O)CN1; NMeI = CC[C@H](C)[C@H](NC)C(=O)O; Aad = N[C@@H](CCCC(=O)O)C(=O)O; Orn = NCCC[C@H](N)C(=O)O; Sar = CNCC(=O)O

What was measured:
[1] = target: recombinant human amylin 3 receptor (hAMYR3) (human), P30988; experiment: cell-based or functional assay
[2] = target: recombinant human calcitonin receptor (hCT-R) (human), P30988; experiment: cell-based or functional assay
Chain of recombinant human calcitonin receptor (hCT-R) (human), P30988 (P30988 25-474): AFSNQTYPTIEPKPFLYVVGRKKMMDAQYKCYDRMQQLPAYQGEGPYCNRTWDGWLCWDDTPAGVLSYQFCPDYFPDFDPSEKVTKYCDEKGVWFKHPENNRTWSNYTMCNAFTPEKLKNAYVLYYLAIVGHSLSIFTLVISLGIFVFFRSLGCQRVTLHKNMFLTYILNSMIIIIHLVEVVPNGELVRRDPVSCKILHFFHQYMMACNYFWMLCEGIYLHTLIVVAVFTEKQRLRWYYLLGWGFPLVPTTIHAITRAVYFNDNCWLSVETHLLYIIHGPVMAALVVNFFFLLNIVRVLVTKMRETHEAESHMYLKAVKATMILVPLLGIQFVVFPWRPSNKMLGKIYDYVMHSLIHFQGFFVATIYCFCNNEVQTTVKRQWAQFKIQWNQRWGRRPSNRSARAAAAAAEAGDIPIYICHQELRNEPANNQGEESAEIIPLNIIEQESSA

Chain of recombinant human amylin 3 receptor (hAMYR3) (human), P30988 (P30988 25-474, chain 1 of 2): as the sequence (P30988 25-474) above
Chain of recombinant human amylin 3 receptor (hAMYR3) (human), P30988 (O60896 24-148, chain 2 of 2, further chain): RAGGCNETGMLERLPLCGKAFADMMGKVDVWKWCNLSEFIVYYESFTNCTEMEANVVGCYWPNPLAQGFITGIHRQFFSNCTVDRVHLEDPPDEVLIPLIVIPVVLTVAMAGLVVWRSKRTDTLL

B2: Compound 21 (peptide)
peptide: {C20 diacid-γGlu}-RDGTAT[Orn]ATERLA[Aad]FLQRSSF[Sar]A[NMeI]PSSTEVGSNT[Hyp]-NH2
modifications: lactam 2-7
SMILES: CC[C@H](C)[C@@H](C(=O)N1CCC[C@H]1C(=O)N[C@@H](CO)C(=O)N[C@@H](CO)C(=O)N[C@H](C(=O)N[C@@H](CCC(=O)O)C(=O)N[C@H](C(=O)NCC(=O)N[C@@H](CO)C(=O)N[C@@H](CC(N)=O)C(=O)N[C@H](C(=O)N1C[C@H](O)C[C@H]1C(N)=O)[C@@H](C)O)C(C)C)[C@@H](C)O)N(C)C(=O)[C@H](C)NC(=O)CN(C)C(=O)[C@H](Cc1ccccc1)NC(=O)[C@H](CO)NC(=O)[C@H](CO)NC(=O)[C@H](CCCNC(=N)N)NC(=O)[C@H](CCC(N)=O)NC(=O)[C@H](CC(C)C)NC(=O)[C@H](Cc1ccccc1)NC(=O)[C@H](CCCC(=O)O)NC(=O)[C@H](C)NC(=O)[C@H](CC(C)C)NC(=O)[C@H](CCCNC(=N)N)NC(=O)[C@H](CCC(=O)O)NC(=O)[C@@H](NC(=O)[C@H](C)NC(=O)[C@@H]1CCCNC(=O)C[C@H](NC(=O)[C@H](CCCNC(=N)N)NC(=O)CC[C@H](NC(=O)CCCCCCCCCCCCCCCCCCC(=O)O)C(=O)O)C(=O)NCC(=O)N[C@@H]([C@@H](C)O)C(=O)N[C@@H](C)C(=O)N[C@@H]([C@@H](C)O)C(=O)N1)[C@@H](C)O
- hAMYR3 EC50 [nM] (cAMP formation, 1321N1 cells expressing hAMYR3) [1]: 0.01 nM
- hCT-R EC50 [nM] (cAMP formation, 1321N1 cells expressing hCT-R) [2]: 0.037 nM

B3: Compound 20 (peptide)
peptide: {C20 diacid-γGlu}-RDGTAT[Orn]ATERLA[Aad]FLQRSSF[Sar]A[NMeI]LSSTEVGSNT[Hyp]-NH2
modifications: lactam 2-7
SMILES: CC[C@H](C)[C@@H](C(=O)N[C@@H](CC(C)C)C(=O)N[C@@H](CO)C(=O)N[C@@H](CO)C(=O)N[C@H](C(=O)N[C@@H](CCC(=O)O)C(=O)N[C@H](C(=O)NCC(=O)N[C@@H](CO)C(=O)N[C@@H](CC(N)=O)C(=O)N[C@H](C(=O)N1C[C@H](O)C[C@H]1C(N)=O)[C@@H](C)O)C(C)C)[C@@H](C)O)N(C)C(=O)[C@H](C)NC(=O)CN(C)C(=O)[C@H](Cc1ccccc1)NC(=O)[C@H](CO)NC(=O)[C@H](CO)NC(=O)[C@H](CCCNC(=N)N)NC(=O)[C@H](CCC(N)=O)NC(=O)[C@H](CC(C)C)NC(=O)[C@H](Cc1ccccc1)NC(=O)[C@H](CCCC(=O)O)NC(=O)[C@H](C)NC(=O)[C@H](CC(C)C)NC(=O)[C@H](CCCNC(=N)N)NC(=O)[C@H](CCC(=O)O)NC(=O)[C@@H](NC(=O)[C@H](C)NC(=O)[C@@H]1CCCNC(=O)C[C@H](NC(=O)[C@H](CCCNC(=N)N)NC(=O)CC[C@H](NC(=O)CCCCCCCCCCCCCCCCCCC(=O)O)C(=O)O)C(=O)NCC(=O)N[C@@H]([C@@H](C)O)C(=O)N[C@@H](C)C(=O)N[C@@H]([C@@H](C)O)C(=O)N1)[C@@H](C)O
- hAMYR3 EC50 [nM] (cAMP formation, 1321N1 cells expressing hAMYR3) [1]: 0.003 nM
- hCT-R EC50 [nM] (cAMP formation, 1321N1 cells expressing hCT-R) [2]: 0.009 nM

B5: Compound 3 (peptide)
peptide: {C20 diacid-γGlu}-RDGTAT[Orn]ATERLAHFLQRSSF[Sar]A[NMeI]LSSTEVGSNT[Hyp]-NH2
modifications: lactam 2-7
SMILES: CC[C@H](C)[C@@H](C(=O)N[C@@H](CC(C)C)C(=O)N[C@@H](CO)C(=O)N[C@@H](CO)C(=O)N[C@H](C(=O)N[C@@H](CCC(=O)O)C(=O)N[C@H](C(=O)NCC(=O)N[C@@H](CO)C(=O)N[C@@H](CC(N)=O)C(=O)N[C@H](C(=O)N1C[C@H](O)C[C@H]1C(N)=O)[C@@H](C)O)C(C)C)[C@@H](C)O)N(C)C(=O)[C@H](C)NC(=O)CN(C)C(=O)[C@H](Cc1ccccc1)NC(=O)[C@H](CO)NC(=O)[C@H](CO)NC(=O)[C@H](CCCNC(=N)N)NC(=O)[C@H](CCC(N)=O)NC(=O)[C@H](CC(C)C)NC(=O)[C@H](Cc1ccccc1)NC(=O)[C@H](Cc1c[nH]cn1)NC(=O)[C@H](C)NC(=O)[C@H](CC(C)C)NC(=O)[C@H](CCCNC(=N)N)NC(=O)[C@H](CCC(=O)O)NC(=O)[C@@H](NC(=O)[C@H](C)NC(=O)[C@@H]1CCCNC(=O)C[C@H](NC(=O)[C@H](CCCNC(=N)N)NC(=O)CC[C@H](NC(=O)CCCCCCCCCCCCCCCCCCC(=O)O)C(=O)O)C(=O)NCC(=O)N[C@@H]([C@@H](C)O)C(=O)N[C@@H](C)C(=O)N[C@@H]([C@@H](C)O)C(=O)N1)[C@@H](C)O
- hAMYR3 EC50 [nM] (cAMP formation, 1321N1 cells expressing hAMYR3) [1]: 0.035 nM
- hCT-R EC50 [nM] (cAMP formation, 1321N1 cells expressing hCT-R) [2]: 0.081 nM

B6: Compound 22 (peptide)
peptide: {C20 diacid-γGlu}-RDGTAT[Orn]ATERLA[Aad]FLTRSSF[Sar]A[NMeI]LSSTEVGSST[Hyp]-NH2
modifications: lactam 2-7
SMILES: CC[C@H](C)[C@@H](C(=O)N[C@@H](CC(C)C)C(=O)N[C@@H](CO)C(=O)N[C@@H](CO)C(=O)N[C@H](C(=O)N[C@@H](CCC(=O)O)C(=O)N[C@H](C(=O)NCC(=O)N[C@@H](CO)C(=O)N[C@@H](CO)C(=O)N[C@H](C(=O)N1C[C@H](O)C[C@H]1C(N)=O)[C@@H](C)O)C(C)C)[C@@H](C)O)N(C)C(=O)[C@H](C)NC(=O)CN(C)C(=O)[C@H](Cc1ccccc1)NC(=O)[C@H](CO)NC(=O)[C@H](CO)NC(=O)[C@H](CCCNC(=N)N)NC(=O)[C@@H](NC(=O)[C@H](CC(C)C)NC(=O)[C@H](Cc1ccccc1)NC(=O)[C@H](CCCC(=O)O)NC(=O)[C@H](C)NC(=O)[C@H](CC(C)C)NC(=O)[C@H](CCCNC(=N)N)NC(=O)[C@H](CCC(=O)O)NC(=O)[C@@H](NC(=O)[C@H](C)NC(=O)[C@@H]1CCCNC(=O)C[C@H](NC(=O)[C@H](CCCNC(=N)N)NC(=O)CC[C@H](NC(=O)CCCCCCCCCCCCCCCCCCC(=O)O)C(=O)O)C(=O)NCC(=O)N[C@@H]([C@@H](C)O)C(=O)N[C@@H](C)C(=O)N[C@@H]([C@@H](C)O)C(=O)N1)[C@@H](C)O)[C@@H](C)O
- hAMYR3 EC50 [nM] (cAMP formation, 1321N1 cells expressing hAMYR3) [1]: 0.051 nM
- hCT-R EC50 [nM] (cAMP formation, 1321N1 cells expressing hCT-R) [2]: 0.474 nM

Second part, the binder after the results:

- hAMYR3 EC50 [nM] (cAMP formation, 1321N1 cells expressing hAMYR3) [1]: 0.336 nM
- hCT-R EC50 [nM] (cAMP formation, 1321N1 cells expressing hCT-R) [2]: 0.844 nM
B1: Compound 25 (peptide)
peptide: {C20 diacid-γGlu}-RDGTAT[Orn]ATERLA[Aad]FLQRATF[Sar]A[NMeI]LSSTEVGSNT[Hyp]-NH2
modifications: lactam 2-7
SMILES: CC[C@H](C)[C@@H](C(=O)N[C@@H](CC(C)C)C(=O)N[C@@H](CO)C(=O)N[C@@H](CO)C(=O)N[C@H](C(=O)N[C@@H](CCC(=O)O)C(=O)N[C@H](C(=O)NCC(=O)N[C@@H](CO)C(=O)N[C@@H](CC(N)=O)C(=O)N[C@H](C(=O)N1C[C@H](O)C[C@H]1C(N)=O)[C@@H](C)O)C(C)C)[C@@H](C)O)N(C)C(=O)[C@H](C)NC(=O)CN(C)C(=O)[C@H](Cc1ccccc1)NC(=O)[C@@H](NC(=O)[C@H](C)NC(=O)[C@H](CCCNC(=N)N)NC(=O)[C@H](CCC(N)=O)NC(=O)[C@H](CC(C)C)NC(=O)[C@H](Cc1ccccc1)NC(=O)[C@H](CCCC(=O)O)NC(=O)[C@H](C)NC(=O)[C@H](CC(C)C)NC(=O)[C@H](CCCNC(=N)N)NC(=O)[C@H](CCC(=O)O)NC(=O)[C@@H](NC(=O)[C@H](C)NC(=O)[C@@H]1CCCNC(=O)C[C@H](NC(=O)[C@H](CCCNC(=N)N)NC(=O)CC[C@H](NC(=O)CCCCCCCCCCCCCCCCCCC(=O)O)C(=O)O)C(=O)NCC(=O)N[C@@H]([C@@H](C)O)C(=O)N[C@@H](C)C(=O)N[C@@H]([C@@H](C)O)C(=O)N1)[C@@H](C)O)[C@@H](C)O

- hAMYR3 EC50 [nM] (cAMP formation, 1321N1 cells expressing hAMYR3) [1]: 0.013 nM
- hCT-R EC50 [nM] (cAMP formation, 1321N1 cells expressing hCT-R) [2]: 0.038 nM
B4: Compound 24 (peptide)
peptide: {C20 diacid-γGlu}-RDGTAT[Orn]ATERLA[Aad]FLQRTTF[Sar]A[NMeI]PSSTEVGSNT[Hyp]-NH2
modifications: lactam 2-7
SMILES: CC[C@H](C)[C@@H](C(=O)N1CCC[C@H]1C(=O)N[C@@H](CO)C(=O)N[C@@H](CO)C(=O)N[C@H](C(=O)N[C@@H](CCC(=O)O)C(=O)N[C@H](C(=O)NCC(=O)N[C@@H](CO)C(=O)N[C@@H](CC(N)=O)C(=O)N[C@H](C(=O)N1C[C@H](O)C[C@H]1C(N)=O)[C@@H](C)O)C(C)C)[C@@H](C)O)N(C)C(=O)[C@H](C)NC(=O)CN(C)C(=O)[C@H](Cc1ccccc1)NC(=O)[C@@H](NC(=O)[C@@H](NC(=O)[C@H](CCCNC(=N)N)NC(=O)[C@H](CCC(N)=O)NC(=O)[C@H](CC(C)C)NC(=O)[C@H](Cc1ccccc1)NC(=O)[C@H](CCCC(=O)O)NC(=O)[C@H](C)NC(=O)[C@H](CC(C)C)NC(=O)[C@H](CCCNC(=N)N)NC(=O)[C@H](CCC(=O)O)NC(=O)[C@@H](NC(=O)[C@H](C)NC(=O)[C@@H]1CCCNC(=O)C[C@H](NC(=O)[C@H](CCCNC(=N)N)NC(=O)CC[C@H](NC(=O)CCCCCCCCCCCCCCCCCCC(=O)O)C(=O)O)C(=O)NCC(=O)N[C@@H]([C@@H](C)O)C(=O)N[C@@H](C)C(=O)N[C@@H]([C@@H](C)O)C(=O)N1)[C@@H](C)O)[C@@H](C)O)[C@@H](C)O

- hAMYR3 EC50 [nM] (cAMP formation, 1321N1 cells expressing hAMYR3) [1]: 0.706 nM
- hCT-R EC50 [nM] (cAMP formation, 1321N1 cells expressing hCT-R) [2]: 1.93 nM
B7: Compound 23 (peptide)
peptide: {C20 diacid-γGlu}-RDGTAT[Orn]ATERLA[Aad]FLQRTTF[Sar]A[NMeI]LSSTEVGSNT[Hyp]-NH2
modifications: lactam 2-7
SMILES: CC[C@H](C)[C@@H](C(=O)N[C@@H](CC(C)C)C(=O)N[C@@H](CO)C(=O)N[C@@H](CO)C(=O)N[C@H](C(=O)N[C@@H](CCC(=O)O)C(=O)N[C@H](C(=O)NCC(=O)N[C@@H](CO)C(=O)N[C@@H](CC(N)=O)C(=O)N[C@H](C(=O)N1C[C@H](O)C[C@H]1C(N)=O)[C@@H](C)O)C(C)C)[C@@H](C)O)N(C)C(=O)[C@H](C)NC(=O)CN(C)C(=O)[C@H](Cc1ccccc1)NC(=O)[C@@H](NC(=O)[C@@H](NC(=O)[C@H](CCCNC(=N)N)NC(=O)[C@H](CCC(N)=O)NC(=O)[C@H](CC(C)C)NC(=O)[C@H](Cc1ccccc1)NC(=O)[C@H](CCCC(=O)O)NC(=O)[C@H](C)NC(=O)[C@H](CC(C)C)NC(=O)[C@H](CCCNC(=N)N)NC(=O)[C@H](CCC(=O)O)NC(=O)[C@@H](NC(=O)[C@H](C)NC(=O)[C@@H]1CCCNC(=O)C[C@H](NC(=O)[C@H](CCCNC(=N)N)NC(=O)CC[C@H](NC(=O)CCCCCCCCCCCCCCCCCCC(=O)O)C(=O)O)C(=O)NCC(=O)N[C@@H]([C@@H](C)O)C(=O)N[C@@H](C)C(=O)N[C@@H]([C@@H](C)O)C(=O)N1)[C@@H](C)O)[C@@H](C)O)[C@@H](C)O
